Measured values as given in publication PMC2175199 (The Journal of Cell Biology, 2000).

Biological target: T1, XSA2 (Xenopus laevis (endogenous in egg …, UniProt Q9DGN0 1-1194))
T1 sequence: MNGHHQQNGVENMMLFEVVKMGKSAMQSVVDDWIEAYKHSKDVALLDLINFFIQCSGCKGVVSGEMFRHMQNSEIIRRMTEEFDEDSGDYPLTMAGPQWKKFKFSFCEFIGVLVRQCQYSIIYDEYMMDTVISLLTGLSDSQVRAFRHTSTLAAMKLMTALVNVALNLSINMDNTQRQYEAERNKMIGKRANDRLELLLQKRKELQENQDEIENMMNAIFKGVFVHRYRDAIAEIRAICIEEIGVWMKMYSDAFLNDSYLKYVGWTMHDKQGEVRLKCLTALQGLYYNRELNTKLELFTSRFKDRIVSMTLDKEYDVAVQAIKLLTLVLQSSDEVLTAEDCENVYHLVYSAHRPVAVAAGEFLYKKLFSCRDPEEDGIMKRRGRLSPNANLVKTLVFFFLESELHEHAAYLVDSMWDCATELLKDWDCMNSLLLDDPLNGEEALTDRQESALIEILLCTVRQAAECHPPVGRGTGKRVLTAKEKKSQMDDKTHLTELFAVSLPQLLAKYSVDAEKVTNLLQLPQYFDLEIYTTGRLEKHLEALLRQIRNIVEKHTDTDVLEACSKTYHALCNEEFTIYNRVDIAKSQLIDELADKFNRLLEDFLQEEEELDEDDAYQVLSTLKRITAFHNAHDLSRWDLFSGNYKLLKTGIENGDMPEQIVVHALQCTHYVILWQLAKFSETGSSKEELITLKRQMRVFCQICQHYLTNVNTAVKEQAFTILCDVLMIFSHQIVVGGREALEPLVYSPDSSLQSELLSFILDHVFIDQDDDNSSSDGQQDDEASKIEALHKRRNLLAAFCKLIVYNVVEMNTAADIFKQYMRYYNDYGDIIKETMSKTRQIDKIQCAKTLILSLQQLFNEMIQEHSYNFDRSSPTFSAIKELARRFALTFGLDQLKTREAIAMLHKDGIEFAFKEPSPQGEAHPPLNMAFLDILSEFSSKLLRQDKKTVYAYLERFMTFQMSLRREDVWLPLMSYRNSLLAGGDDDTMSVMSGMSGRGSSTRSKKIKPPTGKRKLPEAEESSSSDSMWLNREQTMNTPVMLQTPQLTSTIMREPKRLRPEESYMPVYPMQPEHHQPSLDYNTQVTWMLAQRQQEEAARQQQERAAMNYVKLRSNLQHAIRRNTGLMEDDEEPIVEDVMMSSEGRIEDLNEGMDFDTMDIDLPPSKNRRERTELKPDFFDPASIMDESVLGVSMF
Experiment: co-IP

Binder	percent depleted from the extract by anti-XSA2
XSMC1 (natural protein) MGFLKLIEIENFKSYKGRQIIGPFHRFTAIIGPNGSGKSNLMDAISFVLGEKTSNLRVKTLRDLIHGAPVGKPAANRAFVSMVYSEDSGEEKVFSRVIVGGSSEYKINNKVVQLSEYSDSLEKLGILIKARNFLVFQGAVESIAMKNPKERTALFEEISRSGELAQEYDKRKKEMVKAEEDTQFNYHRKKNIAAERKEAKQEKEEAERYQRLKDEVARAQIQLQLFKLYHNESEIEKLNKELSVKNKGIEKDKKHMDKVEEELKDKKKELGKMMREQQAIEKEIKEKDAELNQKLPQYIKAKENPSHKIKKFRAAKKSLQNAQKQYKKRKADMDELEKEMLSVEKARQEFEERMEEESQSQGRDLTLEENQVKKYHRLKEEASKRAATLAQELEKFNRDQKADQDRLDLEERKKVETEAKIKQKLRELEENQKRIEKLEEYIATSKQSLEEQKNLEETLTEEVEMAKRRIDEINSELNQVMEQLGDARIDRQESSRQQRKAEIMESIKRLYPGSVYGRLIDLCQPTQKKYQIAVTKVLGKNMDAIIVDSEKTGRDCIQYIKEQRGEPETFLPLDYLEVKPTDERLRELKGAKLVIDVIRYEPPHIKKALQYACGNALVCDNVEDARRIAFGGHQRHKTVALDGTLFQKSGVISGGASDLKAKARRWDEKAVDKLKEKKERLTEELKEQMKAKRKEAELRQVQSQAHGLQMRLKYSQSDLEQTKTRHLAMNMQEKSKLESELANFSPRINDIKRIIQSRDREMKDLKEKMNQVEDEVFEEFCREIGVRNIREFEEEKVKRQNEIAKKRLEFENQKTRLGIQLDYEKNQLKEDQGKVQTWEQSVKKDDNEIEKLKKEEQRHMKIIDETMAQLQDLKNQHLAKKSEVNDKNHLMEDIRKKLGSANKEVTHLQKEVTAIETKLEQKRSDRHNLLQACKMSDIKLPLSKGTMDDISQEEGSSQGEESASSSQRSSTVYAKEALIEIDYSDLSEDLKDAVADDDIKQEMSALHQKINEQQSILQRISAPNMKAMEKLESVRDKFQETSDEFEAARKRAKKAKQAFEQTKKERFDRFNACFESVATNIDEIYKALSRNSSAQAFLGPENPEEPYLDGINYNCVAPGKRFRPMDNLSGGEKTVAALALLFAIHSYKPSPFFVLDEIDAALDNTNIGKVANYIKEQSMSNFQAIVISLKEEFYTKAESLIGVYPEQGDCVISKVLTFDLTKYPDANPNPND	~5%
XSMC3 (natural protein) MYIKQVIIQGFRSYRDQTIVDPFSSKHNVIVGRNGSGKSNFFYAIQFVLSDEFSHLRPEQRLALLHEGTGPRVISAFVEIIFDNSDNRLPIDKEEVSLRRVIGAKKDQYFLDKKMVTKNDVMNLLESAGFSRSNPYYIVKQGKINQMATAPDSQRLKLLREVAGTRVYDERKEESISLMKETEGKRDKINELLKYIEERLHTLEEEKEELAQYQKWDKMRRALEYTIYNQELNETRAKLDELSSKRETSGEKSRQLRDAQQDARDKMEEIERQVRELKSKISAMKEEKEQLSSERQEQIKQRTKLELKTKDLQDELAGNSEQRKRLLKERQKLLEKIEEKQKELAETEPKFSSVKQKEESGIARLAQATQERTDLYAKQGRGSQFTSKEERDKWIKKELKSLDQAINDKKRQIAAINKDLEETEVNKEKNLEQYTKLDQDLNEVKTRVEELDKKYYEVKNKKDELQSERNYLWREENAEQQSLAAKREDLEKKQQLLRAATGKAILNGIDSINKVLEHFRRKGINQHVINGYHGIVMNNFDCEPAFYTCVEVTAGNRLFYHIVESDEVSTKILMEFNKMNLPGEVTFLPLNKLDVRDTAYPETNDAIPMISKLRYNLRFDKAFKHVFGKTLICRSMEVSTQLARAFTMDCITLEGDQVSHRGALTGGYYDTRKSRLELQKDVRKVEDELHALEAKLNENLRRNIERINNEIDQLMNQMQQIETQQRKFKASRDSILSEMKMLKEKRQQSEKTFMPKQRSLQSLEASLHAMESTRESLKAELGTDLLSQLSLEDQKRVDALNDEIRQLQQENRQLLNERIKLEGTITRVETYLNENLRKRLDQVEQELNELRETEGGTVLTATTSELEAINKRVKDTLARSEGLDITIDKTEVESKDLVKSMDRWKNMEKDHMDAINHDTKELEKMTNRQGMLLKKKEECMKKIRELGSLPQEAFEKYQTLSLKQLFRKLEQCNTELKKYSHVNKKALDQFVNFSEQKEKLIKRQEELDRGHKSIMELMNVLELRKYEAIQLTFKQVSKNFSEVFQKLVPGGKATLVMKKGDVEGSQSQDEGEGSTQSSVPSVDQFTGVGIRVSFTGKQAEMREMQQLSGGQKSLVALALIFAIQKCDPAPFYLFDEIDQALDAQHRKAVSDMIMELASHAQFITTTFRPELLESADKFYGVKFRNKVSHIDVITAEQAKDFVEDDTTHG	~5%
